The subject of the data set is MS2 coat protein. The experiment in a line: apparent KD of MS2 coat protein; designed switch direction (-1 OFF switch, 1 ON switch): -1; higher = weaker reporter binding. The essentials: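 Designed RNA switches sharing common flanks were transcribed on Illumina chips by stalled E. coli RNA polymerase. They were titrated with SNAP-549-labelled MS2 coat protein, from 0.7 or 1.5 nM doubling to 3 µM, in Tris-HCl pH 7.5 buffer with KCl, MgCl2, BSA, DTT, tRNA and Tween-20. Titrations ran without input, with 200 uM small-molecule ligand, or with an oligonucleotide input. The apparent KD of each design is the median over its clusters, after curve-fitting of normalised cluster fluorescence.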

[1] abbreviates: Eterna round: R95, input ligand: microRNA oligo, concentration not stated.
Setting [2] is: Eterna round: R95, input ligand: FMN 200 uM.
[3] abbreviates: Eterna round: R95, input ligand: none.
Setting [4] is: input ligand: microRNA oligo, concentration not stated.

With “UGGUCACAUGAGGAUCACCCAUGUCAGGAUAUCGUCACUGGAGCUUCGGCUCCAGUGACGAGAAGGGACAUAAU [E1/6-A1] (Eterna round: R97, puzzle: Exclusion 1)”, the “apparent KD of MS2 coat protein” value was found to be 47 nM (input ligand: FMN 200 uM) and 394 nM (input ligand: none).

Turning to “CUUUUGUGAGGAUAUUAGUAGUAAAUAAAUAAAAUUUCUACUGAGAAGGCACAUGAGGAUCACCCAUGUUCCUC [salish99_ex4_r3_061] (puzzle: Exclusion 4)”, under setting [1], the “apparent KD of MS2 coat protein” value is 33.2 nM.

As to “UAUAUGUUAGGAUAUUAGUAGUAAAUGAAUAAAAUUAUUACUGAGAAGGGACAUGAGGAUCACCCAUGUACCUC [Mat - Exclusion 4 - Eli Mod - D30] (Eterna round: R97, puzzle: Exclusion 4)”, the “apparent KD of MS2 coat protein” value worked out at 19.3 nM (input ligand: FMN 200 uM) and 15.9 nM (input ligand: none).

Turning to “CAUACAGUAGUUAGGAUAUUGCAACGCACACGGAACGAGAAGGGACAUGAGGAUCACCCAUGUAGACUGUAAAG [EX-4 Malc #7] (puzzle: Brourd's mod of Exclusion 4)”, the “apparent KD of MS2 coat protein” value under setting [2] is 20.1 nM, the “apparent KD of MS2 coat protein” value under setting [1] stood at 18.5 nM and the “apparent KD of MS2 coat protein” value under setting [3] came out at 24.7 nM.

Consider “UCGUAGUCAGGAUAUACAUGAGGAUCACCCAUGUAAAAUUUUAAUUUAAUUUUAAGGUGUAGAAGGGACCAGUU [Ex3 #22] (Eterna round: R97, puzzle: Exclusion 3)”, for which the “apparent KD of MS2 coat protein” value by setting is: (input ligand: FMN 200 uM) 43.4 nM; (input ligand: none) 51.8 nM.

As to “CCGAGUCGAGUGAGGAUAUAGCUAAGACCGCUUAGCUAGAAGGCACAUGAGGAUCACCCAUGUCUUAGGAGAAG [Eternabot (L1) Solution 80] (Eterna round: R97, puzzle: Brourd's mod of Exclusion 4)”, the “apparent KD of MS2 coat protein” value was found to be 22.4 nM (input ligand: FMN 200 uM) and 22.2 nM (input ligand: none).

“GGAUCUUGGGUCAGGAUAUGCUGACAGCCAUGUCAGCAGAAGGGACAUGAGGAUCACCCAUGUGCUCGGUUUUG [Magic-19] (puzzle: Brourd's mod of Exclusion 4)”: the “apparent KD of MS2 coat protein” value under setting [1] worked out at 10.1 nM.

Consider “CUGAUGUCAGGAUAUCAGAAAAGGUGCAAGGACGCACCAAAUGAGAAGGGACAUGAGGAUCACCCAUGUAAAAC [Maqucema] (puzzle: Exclusion 4)”, for which the “apparent KD of MS2 coat protein” value under setting [1] is 25.4 nM.

Take “AAUAAAGUAGGAUAUCGGCCAGCGAACAUGAGGAUCACCCAUGUGAUGCCGUGCCGACGCCGAGAAGGGCUUAAAA [Usceisma] (puzzle: Exclusion 5)”: the “apparent KD of MS2 coat protein” value is, setting by setting: under setting [2], 13.5 nM; under setting [1], 12 nM; under setting [3], 12.1 nM.

Turning to “UAAUGUGCGAGAGGAUAUCGUGUACAAAGUACACGAGAAGGCUUCACAUGAGGAUCACCCAUGUACCGAGGUGAAACACCUUGA [Omei Exc(NG)1 B] (Eterna round: R96, puzzle: Exclusion NG 1)”, the “apparent KD of MS2 coat protein” value (input ligand: FMN 200 uM) worked out at 950 nM, the “apparent KD of MS2 coat protein” value under setting [4] amounted to 110 nM and the “apparent KD of MS2 coat protein” value (input ligand: none) came out at 383 nM.

Regarding “UUAAAUCAUGUAGGAUAUGCGUGGCAAAGCUAUGCAGAAGGACAUGAGGAUCACCCAUGUUCUAGCGUCUGCGUACAGAUGCUA [Mat - Exclusion NG 1 - Mod of JL - D77] (Eterna round: R96, puzzle: Exclusion NG 1)”, the “apparent KD of MS2 coat protein” value (input ligand: FMN 200 uM) is 249 nM, the “apparent KD of MS2 coat protein” value under setting [4] stood at 34.9 nM and the “apparent KD of MS2 coat protein” value (input ligand: none) turned out to be 42.6 nM.

“CUGCUCCGUGUAGGAUAUCCGGGCAACCAAUCCGGAGAAGGACAUGAGGAUCACCCAUGUAUGUUAUUAUCACGUGAAGCGUCC [Design 25] (Eterna round: R96, puzzle: Exclusion NG 1)”: under setting [4], the “apparent KD of MS2 coat protein” value was 15.6 nM.

Regarding “GAAAAGGUAGGAUAUACGAAAAAAAAGGGUAGAAAAAGAACACAUGAGGAUCACCCAUGUAGAAGGACCAAAAG [salish99_ex2_r3_020] (puzzle: Exclusion 2)”, the “apparent KD of MS2 coat protein” value under setting [2] came to 72.8 nM, the “apparent KD of MS2 coat protein” value under setting [1] was 20.9 nM and the “apparent KD of MS2 coat protein” value under setting [3] came to 20.3 nM.

As for “UUUAGUUCAGGAUAUGUAGAUUUUAACAUGAGGAUCACCCAUGUAGAUCCUGAAUUAACUACAGAAGGGAACAUUU [Mod of Brourd 1 - Jieux - Exclusion 5] (Eterna round: R97, puzzle: Exclusion 5)”, the “apparent KD of MS2 coat protein” value turned out to be 77.2 nM (input ligand: FMN 200 uM) and 22.5 nM (input ligand: none).

In the case of “UAGAUGGGAGGAUAUACGUAGAUGCAGAUUCGUGUGGUGCUACAUGAGGAUCACCCAUGUAGAAGGCCCGUCUU [JL-ex2-2.24 Mayanne mod] (puzzle: Exclusion 2)”, the “apparent KD of MS2 coat protein” value under setting [1] stood at 15.4 nM.

For “AAUAAUAAUGUGAGGAUAUCUAGAGCCUCGGCUCUAGAGAAGGCACAUGAGGAUCACCCAUGUCUCAAUAAUAA [BmEx4/2-E5] (Eterna round: R97, puzzle: Brourd's mod of Exclusion 4)”, the “apparent KD of MS2 coat protein” value is, setting by setting: (input ligand: FMN 200 uM) 307 nM; (input ligand: none) 52.8 nM.

“AUAAUAUAUGUAGGAUAUCUGCACGUUUAGUGCAGAGAAGGACAUGAGGAUCACCCAUGUAAUUAAGAUCAAUUAUUAAAUUAU [ENG1/4-B2] (Eterna round: R96, puzzle: Exclusion NG 1)”: the “apparent KD of MS2 coat protein” value amounted to 59.5 nM (input ligand: FMN 200 uM), 29.5 nM under setting [4] and 40.8 nM (input ligand: none).

Consider “GUCACAUGGACAUAGGAUCACAUGAGGAUCACCCAUGUGACUAACAAGCUUUUUGUUCGUCUUAUGUCCAUGUGAAU [Stov1/15-B1] (Eterna round: R97, puzzle: Sensor, turn-off variant 1)”, for which the “apparent KD of MS2 coat protein” value (input ligand: FMN 200 uM) turned out to be 13.7 nM and the “apparent KD of MS2 coat protein” value (input ligand: none) came to 12 nM.

With “UAAAAGGAAGGAUAUACACUUCAAAACCUCAUGUGACUUUCACAUGAGGAUCACCCAUGUAGAAGGUCCAAGGC [Letior] (puzzle: Exclusion 2)”, the “apparent KD of MS2 coat protein” value under setting [1] is 21.5 nM.

With “CAGUACUGAGGAUAUACAUGAGGAUCACCCAUGUGAUUGAGUGCACGCGUACGUGUACGUAGAAGGCAGUACUG [JL 3.27 m11] (Eterna round: R97, puzzle: Exclusion 3)”, the “apparent KD of MS2 coat protein” value runs as follows: (input ligand: FMN 200 uM) 194 nM; (input ligand: none) 18.1 nM.

With “AGAAACAGAGGAUAUCGCGGACAGCACAUGAGGAUCACCCAUGUGAUGCUCCGCGGGCCGCGAGAAGGCUGAAAUG [Rateatge] (Eterna round: R96, puzzle: Exclusion 5)”, the “apparent KD of MS2 coat protein” value under setting [4] is 11.2 nM.

Take “AUUGACUGAGGAUAUUGUGCUGCUGACAUGAGGAUCACCCAUGUAUGUUAACUCGGCCGUCGAGAAGGCAGAAAUG [BotMod 20 - Jieux - Exclusion 5] (Eterna round: R97, puzzle: Exclusion 5)”: the “apparent KD of MS2 coat protein” value reads like this: (input ligand: FMN 200 uM) 22.6 nM; (input ligand: none) 28.2 nM.

With “AAGUCAUUAGGAUAUGAAUAGGGAGACAUGAGGAUCACCCAUGUUGAUAGAACGACAUGUUCAGAAGGAGUCGCUG [Eternabot (L1) Solution 45] (Eterna round: R97, puzzle: Exclusion 5)”, the “apparent KD of MS2 coat protein” value turned out to be 33.7 nM (input ligand: FMN 200 uM) and 33 nM (input ligand: none).

In the case of “ACACACAGAGGAUAUCUUCCGCAUGACAUGAGGAUCACCCAUGUGUGCAUGCCCAAAGGUAGAGAAGGCUGUGUGU [eternacac ex5r4 #4] (Eterna round: R97, puzzle: Exclusion 5)”, the “apparent KD of MS2 coat protein” value reads like this: (input ligand: FMN 200 uM) 24.9 nM; (input ligand: none) 22.2 nM.

“UAUAAGGUAGGAUAUACGAAUAAAUAGGGUAGAAUAAUAACACAUGAGGAUCACCCAUGUAGAAGGACCAAUAU [Mat - Exclusion 2 - Mod of my Tesla design - D28] (puzzle: Exclusion 2)”: the “apparent KD of MS2 coat protein” value is 39.3 nM under setting [2], 21.1 nM under setting [1] and 20.3 nM under setting [3].

Regarding “CGGAGCAGAGGGAGAUCCAACAUGAGGAUCACCCAUGUCUCACAAGCUUUUUGCUCGUCUUAUUGUACCUUGGUACU [JL ViennaUCT Edcesobi mod 8] (puzzle: Sensor v3, turn-off variant 1)”, the “apparent KD of MS2 coat protein” value under setting [2] came out at 155 nM, the “apparent KD of MS2 coat protein” value under setting [1] worked out at 9.75 nM and the “apparent KD of MS2 coat protein” value under setting [3] worked out at 54.6 nM.

As to “GCGGAGUAUGUAGGAUAUCGGUCAGUUUCUGAUCGAGAAGGACAUGAGGAUCACCCAUGUAAAUUCCUCGCUUUGUGAGGCCGC [JL ENG1 3.65] (Eterna round: R96, puzzle: Exclusion NG 1)”, the “apparent KD of MS2 coat protein” value by setting is: (input ligand: FMN 200 uM) 21.6 nM; under setting [4], 12.8 nM; (input ligand: none) 17.1 nM.

For the sequence “GCACUGCGAGGAUAUACAUGAGGAUCACCCAUGUGUCCGCAGCGAUGCGAGUACAAAUGUAGAAGGCGCGUAAA [EX3 #57] (Eterna round: R97, puzzle: Exclusion 3)”, the “apparent KD of MS2 coat protein” value (input ligand: FMN 200 uM) amounted to 34.1 nM and the “apparent KD of MS2 coat protein” value (input ligand: none) came out at 14.3 nM.

As to “CUCUUAUCUUAGGAUAUUUUACCGCAAGUGGUGGGAGAAGGGAGCACAUGAGGAUCACCCAUGUUAGCUGGGCU [Eternabot (L2) Solution 19] (Eterna round: R97, puzzle: Exclusion 6)”, the “apparent KD of MS2 coat protein” value reads like this: (input ligand: FMN 200 uM) 22.1 nM; (input ligand: none) 20.5 nM.

Consider “AAGUAGUGUGUGAGGAUAUUGGUGGAAUGACACAUUAAGAAGGCACAUGAGGAUCACCCAUGUGGGUAGACACG [Brourd's EX4 #21] (Eterna round: R97, puzzle: Brourd's mod of Exclusion 4)”, for which the “apparent KD of MS2 coat protein” value was 335 nM (input ligand: FMN 200 uM) and 27.8 nM (input ligand: none).

Regarding “ACAAGCUUAAAAGGUGAUAACAUGAGGAUCACCCAUGUUCGUCUUAUAAAGAUCCUAUGUCGAAAGACGUAGGAUCA [Sensor 3, v1 - 69] (puzzle: Sensor v3, turn-off variant 1)”, the “apparent KD of MS2 coat protein” value came to 21.2 nM under setting [2], 28 nM under setting [1] and 22 nM under setting [3].

Turning to “UUUUAGUAAGGAUAUGAUUAGAUCUACUUCGGUAGAUCUAAUCAGAAGGUACAUGAGGAUCACCCAUGUAGAUU [Mod of Brourd 2 - Jieux - Exclusion 4] (Eterna round: R97, puzzle: Exclusion 4)”, the “apparent KD of MS2 coat protein” value came to 24.1 nM (input ligand: FMN 200 uM) and 18.8 nM (input ligand: none).

Values taken from the supplement of paper PMC9170038.
